Measurements: patent US20110059082A1 (BIOTEST, published 2011)

Biological target: T1, soluble CD4 (human, UniProt P01730 26-396, limits assumed)
T1 construct: The assay paragraph says only 'soluble CD4'
Experiment: competitive ELISA, inhibition of biotinylated mB-F5 binding to coated soluble CD4, 37 °C 2 hours
Procedure: Culture supernatants of transfectomas producing the four versions of hB-F5 were collected, and concentrated. The different antibodies were purified from culture supernatants by affinity chromatography using protein A Sepharose and assessed for their CD4 binding activity by measuring, by means of competitive ELISA, their inhibitory activities against the binding of biotinylated mB-F5 to soluble CD4 coated on microtiter plates. Incubation, time is 2 hours for 37° C. and overnight for 4° C.

Binder	Relative binding activity (% of mB-F5)
humanized B-F5 H37L/L4L (antibody, V domains shown, expressed in Sp2/0, purified on protein A; also called H37L/L4L IgG1; hB-F5) VH: EEQLVESGGGLVKPGGSLRLSCAASGFSFSDCRMYWLRQAPGKGLEWIGVISVKSENYGANYAESVRGRFTISRDDSKNTVYLQMNSLKTEDTAVYYCSASYYRYDVGAWFAYWGQGTLVTVSS VL: DIVLTQSPDSLAVSLGERATINCRASKSVSTSGYSYIYWYQQKPGQPPKLLIYLASILESGVPDRFSGSGSGTDFTLTISSLQAEDVAVYYCQHSRELPWTFGQGTKVEIK	30 % of mB-F5
humanized B-F5 H37V/L4L (antibody, V domains shown, also called hB-F5) VH: EEQLVESGGGLVKPGGSLRLSCAASGFSFSDCRMYWVRQAPGKGLEWIGVISVKSENYGANYAESVRGRFTISRDDSKNTVYLQMNSLKTEDTAVYYCSASYYRYDVGAWFAYWGQGTLVTVSS VL: DIVLTQSPDSLAVSLGERATINCRASKSVSTSGYSYIYWYQQKPGQPPKLLIYLASILESGVPDRFSGSGSGTDFTLTISSLQAEDVAVYYCQHSRELPWTFGQGTKVEIK	10 % of mB-F5

Next, values leading:

Relative binding activity (% of mB-F5)	Binder
30 % of mB-F5	humanized B-F5 H37L/L4M IgG1 (BT061) (antibody, V domains shown, also called hB-F5; humanised B-F5) VH: EEQLVESGGGLVKPGGSLRLSCAASGFSFSDCRMYWLRQAPGKGLEWIGVISVKSENYGANYAESVRGRFTISRDDSKNTVYLQMNSLKTEDTAVYYCSASYYRYDVGAWFAYWGQGTLVTVSS VL: DIVMTQSPDSLAVSLGERATINCRASKSVSTSGYSYIYWYQQKPGQPPKLLIYLASILESGVPDRFSGSGSGTDFTLTISSLQAEDVAVYYCQHSRELPWTFGQGTKVEIK
10 % of mB-F5	humanized B-F5 H37V/L4M (antibody, V domains shown, also called hB-F5) VH: EEQLVESGGGLVKPGGSLRLSCAASGFSFSDCRMYWVRQAPGKGLEWIGVISVKSENYGANYAESVRGRFTISRDDSKNTVYLQMNSLKTEDTAVYYCSASYYRYDVGAWFAYWGQGTLVTVSS VL: DIVMTQSPDSLAVSLGERATINCRASKSVSTSGYSYIYWYQQKPGQPPKLLIYLASILESGVPDRFSGSGSGTDFTLTISSLQAEDVAVYYCQHSRELPWTFGQGTKVEIK
